Patent publication US11795460B2, “Compositions and methods for TTR gene editing and treating ATTR amyloidosis” (Intellia Therapeutics, Inc., priority 2017, dated 2023)
Strand notation (5' to 3'): a small letter for the sugar, then the base; units joined by * are phosphorothioate-linked, units joined directly phosphodiester-linked; [ ] holds rarer units or linkages, { } end groups; capitals alone tell only the bases. m = 2'-O-methyl; r = 2'-OH (RNA)

B1: G000500: TTR sgRNA modified sequence, Human, SEQ ID No. 107; guide sequence of CR003337 (nucleic acid)
guide: mC*mC*mA*rGrUrCrCrArGrCrArArGrGrCrArGrArGrGrGrUrUrUrUrArGrAmGmCmUmAmGmAmAmAmUmAmGmCrArArGrUrUrArArArArUrArArGrGrCrUrArGrUrCrCrGrUrUrArUrCrAmAmCmUmUmGmAmAmAmAmAmGmUmGmGmCmAmCmCmGmAmGmUmCmGmGmUmGmCmU*mU*mU*mU
B2: G000497: TTR sgRNA modified sequence, Human, SEQ ID No. 104; guide sequence of CR003335 (nucleic acid)
guide: mC*mU*mG*rCrUrCrCrUrCrCrUrCrUrGrCrCrUrUrGrCrGrUrUrUrUrArGrAmGmCmUmAmGmAmAmAmUmAmGmCrArArGrUrUrArArArArUrArArGrGrCrUrArGrUrCrCrGrUrUrArUrCrAmAmCmUmUmGmAmAmAmAmAmGmUmGmGmCmAmCmCmGmAmGmUmCmGmGmUmGmCmU*mU*mU*mU
B3: G000498: TTR sgRNA modified sequence, Human, SEQ ID No. 105; guide sequence of CR003359 (nucleic acid)
guide: mA*mG*mU*rGrArGrUrCrUrGrGrArGrArGrCrUrGrCrArGrUrUrUrUrArGrAmGmCmUmAmGmAmAmAmUmAmGmCrArArGrUrUrArArArArUrArArGrGrCrUrArGrUrCrCrGrUrUrArUrCrAmAmCmUmUmGmAmAmAmAmAmGmUmGmGmCmAmCmCmGmAmGmUmCmGmGmUmGmCmU*mU*mU*mU
B4: G000501: TTR sgRNA modified sequence, Human, SEQ ID No. 108; guide sequence of CR005300 (nucleic acid)
guide: mU*mC*mA*rCrArGrArArArCrArCrUrCrArCrCrGrUrArGrUrUrUrUrArGrAmGmCmUmAmGmAmAmAmUmAmGmCrArArGrUrUrArArArArUrArArGrGrCrUrArGrUrCrCrGrUrUrArUrCrAmAmCmUmUmGmAmAmAmAmAmGmUmGmGmCmAmCmCmGmAmGmUmCmGmGmUmGmCmU*mU*mU*mU
B5: G000495: TTR sgRNA modified sequence, Human, SEQ ID No. 102; guide sequence of CR003343 (nucleic acid)
guide: mC*mA*mG*rArGrGrArCrArCrUrUrGrGrArUrUrCrArCrGrUrUrUrUrArGrAmGmCmUmAmGmAmAmAmUmAmGmCrArArGrUrUrArArArArUrArArGrGrCrUrArGrUrCrCrGrUrUrArUrCrAmAmCmUmUmGmAmAmAmAmAmGmUmGmGmCmAmCmCmGmAmGmUmCmGmGmUmGmCmU*mU*mU*mU
B6: G000492: TTR sgRNA modified sequence, Human, SEQ ID No. 99; guide sequence of CR003342 (nucleic acid)
guide: mC*mU*mU*rCrUrCrUrArCrArCrCrCrArGrGrGrCrArCrGrUrUrUrUrArGrAmGmCmUmAmGmAmAmAmUmAmGmCrArArGrUrUrArArArArUrArArGrGrCrUrArGrUrCrCrGrUrUrArUrCrAmAmCmUmUmGmAmAmAmAmAmGmUmGmGmCmAmCmCmGmAmGmUmCmGmGmUmGmCmU*mU*mU*mU
B7: G000490: TTR sgRNA modified sequence, Human, SEQ ID No. 97; guide sequence of CR003366 (nucleic acid)
guide: mA*mA*mA*rUrArGrArCrArCrCrArArArUrCrUrUrArCrGrUrUrUrUrArGrAmGmCmUmAmGmAmAmAmUmAmGmCrArArGrUrUrArArArArUrArArGrGrCrUrArGrUrCrCrGrUrUrArUrCrAmAmCmUmUmGmAmAmAmAmAmGmUmGmGmCmAmCmCmGmAmGmUmCmGmGmUmGmCmU*mU*mU*mU
B8: G000493: TTR sgRNA modified sequence, Human, SEQ ID No. 100; guide sequence of CR003368 (nucleic acid)
guide: mA*mA*mG*rUrGrCrCrUrUrCrCrArGrUrArArGrArUrUrGrUrUrUrUrArGrAmGmCmUmAmGmAmAmAmUmAmGmCrArArGrUrUrArArArArUrArArGrGrCrUrArGrUrCrCrGrUrUrArUrCrAmAmCmUmUmGmAmAmAmAmAmGmUmGmGmCmAmCmCmGmAmGmUmCmGmGmUmGmCmU*mU*mU*mU
B9: G000567: TTR sgRNA modified sequence, Human, SEQ ID No. 109; guide sequence of CR003352 (nucleic acid)
guide: mG*mA*mA*rArGrGrCrUrGrCrUrGrArUrGrArCrArCrCrGrUrUrUrUrArGrAmGmCmUmAmGmAmAmAmUmAmGmCrArArGrUrUrArArArArUrArArGrGrCrUrArGrUrCrCrGrUrUrArUrCrAmAmCmUmUmGmAmAmAmAmAmGmUmGmGmCmAmCmCmGmAmGmUmCmGmGmUmGmCmU*mU*mU*mU
B10: G000496: TTR sgRNA modified sequence, Human, SEQ ID No. 103; guide sequence of CR005304 (nucleic acid)
guide: mG*mG*mC*rCrGrUrGrCrArUrGrUrGrUrUrCrArGrArArGrUrUrUrUrArGrAmGmCmUmAmGmAmAmAmUmAmGmCrArArGrUrUrArArArArUrArArGrGrCrUrArGrUrCrCrGrUrUrArUrCrAmAmCmUmUmGmAmAmAmAmAmGmUmGmGmCmAmCmCmGmAmGmUmCmGmGmUmGmCmU*mU*mU*mU
B11: G000487: TTR sgRNA modified sequence, Human, SEQ ID No. 94; guide sequence of CR003357 (nucleic acid)
guide: mU*mU*mC*rUrUrUrGrGrCrArArCrUrUrArCrCrCrArGrGrUrUrUrUrArGrAmGmCmUmAmGmAmAmAmUmAmGmCrArArGrUrUrArArArArUrArArGrGrCrUrArGrUrCrCrGrUrUrArUrCrAmAmCmUmUmGmAmAmAmAmAmGmUmGmGmCmAmCmCmGmAmGmUmCmGmGmUmGmCmU*mU*mU*mU
B12: G000491: TTR sgRNA modified sequence, Human, SEQ ID No. 98; guide sequence of CR003338 (nucleic acid)
guide: mA*mU*mA*rCrCrArGrUrCrCrArGrCrArArGrGrCrArGrGrUrUrUrUrArGrAmGmCmUmAmGmAmAmAmUmAmGmCrArArGrUrUrArArArArUrArArGrGrCrUrArGrUrCrCrGrUrUrArUrCrAmAmCmUmUmGmAmAmAmAmAmGmUmGmGmCmAmCmCmGmAmGmUmCmGmGmUmGmCmU*mU*mU*mU
B13: G000485: TTR sgRNA modified sequence, Human, SEQ ID No. 92; guide sequence of CR003336 (nucleic acid)
guide: mC*mC*mU*rCrCrUrCrUrGrCrCrUrUrGrCrUrGrGrArCrGrUrUrUrUrArGrAmGmCmUmAmGmAmAmAmUmAmGmCrArArGrUrUrArArArArUrArArGrGrCrUrArGrUrCrCrGrUrUrArUrCrAmAmCmUmUmGmAmAmAmAmAmGmUmGmGmCmAmCmCmGmAmGmUmCmGmGmUmGmCmU*mU*mU*mU

Experiments:
TTR = TTR editing in primary human hepatocytes transfected with Spy Cas9 mRNA and sgRNAs (Table 13); assay type: cell-based; settings: primary human hepatocytes co-transfected with Spy Cas9 mRNA (SEQ ID NO:2) and sgRNAs, 12.5 nM
Method: Primary liver hepatocytes. Primary human liver hepatocytes (PHH) and primary cynomolgus liver hepatocytes (PCH) (Gibco) were cultured per the manufacturer's protocol (Invitrogen, protocol 11.28.2012). In brief, the cells were thawed and resuspended in hepatocyte thawing medium with supplements (Gibco, Cat. CM7000) followed by centrifugation at 100 g for 10 minutes for human and 80 g for 4 minutes for cyno. The supernatant was discarded and the pelleted cells resuspended in hepatocyte plating medium plus supplement pack (Invitrogen, Cat. A1217601 and CM3000). Cells were counted and plated on Bio-coat collagen I coated 96-well plates (ThermoFisher, Cat. 877272) at a density of 33,000 cells/well for human or 60,000 cells/well for cyno (or 65,000 cells/well when assaying effects on TTR protein, described further below). Plated cells were allowed to settle and adhere for 6 or 24 hours in a tissue culture incubator at 37° C. and 5% CO2 atmosphere. After incubation cells were checked for monolayer formation and media was replaced with hepatocyte culture medium with serum-free supplement pack (Invitrogen, Cat. A1217601 and CM4000).
Lipofectamine RNAiMax (ThermoFisher, Cat. 13778150) based transfections were conducted as per the manufacturer's protocol. Cells were sequentially transfected with a lipoplex containing Spy Cas9 mRNA (100 ng), Lipofectamine RNAiMax (0.4 […]) and tracer RNA ([…]), Lipofectamine RNAiMax (0.4 μL/well) and OptiMem.
Transfected cells were harvested post-transfection at 24, 48, or 72 hours. The genomic DNA was extracted from each well of a 96-well plate using 50 μL/well BuccalAmp DNA Extraction solution (Epicentre, Cat. QE09050) per manufacturer's protocol. All DNA samples were subjected to PCR and subsequent NGS analyses, as described herein.
To quantitatively determine the efficiency of editing at the target location in the genome, sequencing was utilized to identify the presence of insertions and deletions introduced by gene editing.
Primers were designed around the target site within the gene of interest (e.g. TTR), and the genomic area of interest was amplified.
Additional PCR was performed per the manufacturer's protocols (Illumina) to add chemistry for sequencing. The amplicons were sequenced on an Illumina MiSeq instrument. The reads were aligned to a reference genome (e.g., the human reference genome (hg38), the cynomologus reference genome (mf5), the rat reference genome (rn6), or the mouse reference genome (mm10)) after eliminating those having low quality scores. The resulting files containing the reads were mapped to the reference genome (BAM files), where reads that overlapped the target region of interest were selected and the number of wild type reads versus the number of reads which contain an insertion, substitution, or deletion was calculated.
The editing percentage (e.g., the “editing efficiency” or “percent editing” or “indel frequency”) is defined as the total number of sequence reads with insertions/deletions (“indels”) or substitutions over the total number of sequence reads, including wild type.
Guides in modified sgRNA format targeting human and/or cyno TTR were delivered to primary human hepatocytes and primary cyno hepatocytes as described in Example 1. Percent editing was determined for crRNAs comprising each guide sequence across each cell type and the guide sequences were then rank ordered based on highest % edit. The screening data for the guide sequences in Table 2 in both cell lines are listed below (Table 12 through 15).

[1] = test system: off-target integration sites; assay: Off-target oligo insertion based assay in primary human hepatocytes (Table 30); assay type: cell-based; settings: TTR sgRNAs in PHH, 100 ng Cas9 mRNA, 25 nM sgRNA, 12.5 nM donor oligo
Method: Off-target analysis of sgRNAs targeting TTR was performed in primary human hepatocytes (PHH) as described in Example 5, with the following modifications. PHH were plated at a density of 33,000 cells per well on collagen-coated 96-well plates as described in Example 1. Twenty-four hours post plating, cells were washed with media and transfected using Lipofectamine RNAiMAX (ThermoFisher, Cat. 13778150) as described in Example 1. Cells were transfected with a lipoplex containing 100 ng Cas9 mRNA, immediately followed by the addition of another lipoplex containing 25 nM of the sgRNA and 12.5 nM of the donor oligo (0.3 μL/well). Cells were lysed 48 hours post-transfection and gDNA was extracted and analyzed as further described in Example 5. The data is graphically represented in FIG. 20.
Fewer sites were detected in PHH for every guide tested as compared to the HekCas9 cell line, with no unique sites detected in PHH alone.

| Molecule | Avg % Deletion (TTR) [%] | Avg % Edit (TTR) [%] | Avg % Insert (TTR) [%] | # Sites in PHH [1] |
| --- | --- | --- | --- | --- |
| B1 | 3.10 | 35.50 | 32.47 | 12 |
| B2 | 5.85 | 40.33 | 34.48 | 3 |
| B3 | 14.90 | 60.02 | 45.20 | 19 |
| B4 | 6.62 | 40.32 | 33.82 | 0 |
| B5 | 4.45 | 47.77 | 43.40 | 1 |
| B6 | 2.22 | 34.65 | 32.45 | 5 |
| B7 | 5.38 | 24.72 | 19.38 | 0 |
| B8 | 0.97 | 11.55 | 10.65 | 1 |
| B9 | 10.02 | 27.28 | 17.35 | 0 |
| B10 | 52.25 | 63.30 | 11.08 | 0 |
| B11 | 2.27 | 49.57 | 47.38 | 0 |
| B12 | 3.60 | 45.93 | 42.42 | 7 |
| B13 | 1.97 | 30.82 | 28.87 | 3 |
